# Laboratory results: patent publication US20040037843A1
# Like-named read-outs stand apart in the source and are kept apart here.
# Key:
# HLA-A*6802 (human) [1] = test: competition with 125I probe peptide on purified HLA, gel filtration; conditions: remark: other sources report otherwise
# HLA-A*0201 (human) [2] = test: as above; conditions: remark: other sources report otherwise
# HLA-A*0202 (human) [3] = conditions: remark: other sources report otherwise
# HLA-A*0202 (human) [4] = test: competition with 125I-labeled probe peptide for purified HLA, gel filtration; conditions: remark: other sources report otherwise
# HLA-A*0206 (human) [5] = test: competition with 125I probe peptide on purified HLA, gel filtration; conditions: remark: other sources report otherwise
# HLA-A*0202 (human) [6] = test: as above; conditions: remark: other sources report otherwise
# HLA-A*6802 (human) [7] = conditions: remark: other sources report otherwise
# HLA-A*0206 (human) [8] = conditions: remark: other sources report otherwise
# HLA-A*2401 (human) = conditions: scale: ratio
# HLA-A*0201 (human) [9] = conditions: remark: other sources report otherwise
# HLA-A*0203 (human) [10] = conditions: remark: other sources report otherwise
# HLA-A*6802 (human) [11] = test: inhibition of 125I probe peptide binding to purified HLA, gel filtration; conditions: remark: other sources report otherwise
# HLA-A*0201 (human) [12] = test: as above; conditions: remark: other sources report otherwise
# HLA-A*0203 (human) [13] = conditions: remark: other sources report otherwise; remark: listed apart in the source
# HLA-A*0202 (human) [14] = conditions: remark: other sources report otherwise; remark: listed apart in the source
# HLA-A*0206 (human) [15] = test: competition with 125I-labeled probe peptide for purified HLA, gel filtration; conditions: remark: other sources report otherwise
# HLA-A*0203 (human) [16] = test: inhibition of 125I probe peptide binding to purified HLA, gel filtration; conditions: remark: other sources report otherwise
# HLA-A*0202 (human) [17] = test: competition with 125I-labelled standard peptide for purified HLA; conditions: remark: other sources report otherwise
# HLA-A*6802 (human) [18] = test: competition with 125I-labeled probe peptide for purified HLA, gel filtration; conditions: remark: other sources report otherwise
# HLA-A*0206 (human) [19] = test: inhibition of 125I probe peptide binding to purified HLA, gel filtration; conditions: remark: other sources report otherwise
# HLA-A*0202 (human) [20] = test: as above; conditions: remark: other sources report otherwise
# HLA-A*0201 (human) [21] = test: competition with 125I-labelled probe peptide on purified HLA; conditions: remark: other sources report otherwise
# HLA-A*0203 (human) [22] = test: competition with 125I probe peptide on purified HLA, gel filtration; conditions: remark: other sources report otherwise
# HLA-A*0301 (human) = conditions: remark: other sources report otherwise
binder,measurement,setting,value
KLRELSELSV [Peptide 63.0048 … (PAP.234.V10)],IC50,HLA-A*6802 (human) [1],1820 nM
same,IC50,HLA-A*0201 (human) [2],263 nM
"ALFPPEGVSV [peptide 1419.61, PAP.122.V10]",IC50,HLA-A*0202 (human) [3],1 nM
ALFDIESKV [Peptide 1129.08],IC50,HLA-A*0202 (human) [4],0.7 nM
GVSIWNPILV [Peptide 63.0041 … (PAP.128.V10)],IC50,HLA-A*6802 (human) [1],2290 nM
same,IC50,HLA-A*0201 (human) [2],250 nM
same,IC50,HLA-A*0206 (human) [5],451 nM
same,IC50,HLA-A*0202 (human) [6],94 nM
"KVTEFMLCV [peptide 1418.21, HuK2.191.V9]",IC50,HLA-A*6802 (human) [7],6670 nM
"FMLCAGLWV [peptide 1418.22, HuK2.195.V9]",IC50,HLA-A*0206 (human) [8],51 nM
"VYNGLLPPY [PAP (Prostatic Acid Phosphatase) peptide, position 302, 9 amino acids]",relative binding ratio (A*2401),HLA-A*2401 (human),0.032
"SLHLLSNDMCA [Peptide 1419.14, HuK2.175]",IC50,HLA-A*0201 (human) [9],72 nM
same,IC50,HLA-A*0203 (human) [10],73 nM
LMLLRLSEPA [Peptide 63.0014 (PSA.117)],IC50,HLA-A*6802 (human) [11],5000 nM
same,IC50,HLA-A*0201 (human) [12],200 nM
"HLLSNDMCV [peptide 1418.20, HuK2.177.V9]",IC50,HLA-A*0203 (human) [13],278 nM
same,IC50,HLA-A*0202 (human) [14],102 nM
RMMNDQLMFL [Peptide 1126.06],IC50,HLA-A*0206 (human) [15],40 nM
MLLRLSEPAEV [Peptide 1389.12 (PSA.118.V11)],IC50,HLA-A*0203 (human) [16],115 nM
"ALFDIESKV [peptide 1129.08, PSM.711]",IC50,HLA-A*0202 (human) [17],0.7 nM
GLPEGDLVYV [Peptide 1389.22],IC50,HLA-A*6802 (human) [18],964 nM
same,IC50,HLA-A*0206 (human) [15],112 nM
QLMFLERAFI [Peptide 1126.16],IC50,HLA-A*6802 (human) [18],30 nM
TLSVTWIGV [Peptide 60.0217 (PSA.5.V9)],IC50,HLA-A*6802 (human) [11],229 nM
same,IC50,HLA-A*0206 (human) [19],712 nM
same,IC50,HLA-A*0203 (human) [16],40 nM
same,IC50,HLA-A*0202 (human) [20],4.9 nM
VLAGGFFLL [Peptide 1126.10],IC50,HLA-A*0202 (human) [4],0.2 nM
"DLMLLRLSEPV [Peptide 1419.13, HuK2.120.V11]",IC50,HLA-A*0201 (human) [9],50 nM
PLLLWQPIPV [Peptide 63.0042 … (PAP.134.L2)],IC50,HLA-A*0201 (human) [2],238 nM
same,IC50,HLA-A*0206 (human) [5],336 nM
same,IC50,HLA-A*0202 (human) [6],47 nM
"VLAGGFFLL [peptide 1126.10, PSM.27]",IC50,HLA-A*0202 (human) [17],0.2 nM
"WVLTAAHCI [PSA 55, 9 amino acids]",relative binding ratio,HLA-A*0201 (human) [21],0.0008
ALFPPEGVSI [Peptide 1419.6 … (PAP.122)],IC50,HLA-A*0201 (human) [2],278 nM
same,IC50,HLA-A*0206 (human) [5],2640 nM
same,IC50,HLA-A*0203 (human) [22],133 nM
"VFRHGDRSPI [PAP (Prostatic Acid Phosphatase) peptide, position 41, 10 amino acids]",relative binding ratio (A*2401),HLA-A*2401 (human),0.0005
"RAVCGGVLVH [PSA peptide, position 43, 10 amino acids]",relative binding ratio (IC50 of standard peptide / IC50 of test peptide),HLA-A*0301 (human),0.011
"GLHGQDLFGI [peptide 1166.11, PAP.196]",IC50,HLA-A*0202 (human) [3],0.9 nM
"LLFFWLDRSV [peptide 1097.09, PAP.21]",IC50,HLA-A*0202 (human) [3],0.6 nM
VTKFMLCAGR [PSA 188 10-mer peptide …],relative binding ratio (IC50 of standard peptide / IC50 of test peptide),HLA-A*0301 (human),0.0003
"FLRPRSLQCV [Peptide 1419.07, HuK2.165]",IC50,HLA-A*0203 (human) [10],4 nM
